Legend:
pro-cathepsin D [1] = target: pro-cathepsin D (UniProt P07339)
pro-cathepsin D [2] = target: pro-cathepsin D (UniProt P07339); remark: listed apart in the source
pro-cathepsin D [3] = target: pro-cathepsin D (UniProt P07339); test: MST

Sequence of pro-cathepsin D (P07339 21-412): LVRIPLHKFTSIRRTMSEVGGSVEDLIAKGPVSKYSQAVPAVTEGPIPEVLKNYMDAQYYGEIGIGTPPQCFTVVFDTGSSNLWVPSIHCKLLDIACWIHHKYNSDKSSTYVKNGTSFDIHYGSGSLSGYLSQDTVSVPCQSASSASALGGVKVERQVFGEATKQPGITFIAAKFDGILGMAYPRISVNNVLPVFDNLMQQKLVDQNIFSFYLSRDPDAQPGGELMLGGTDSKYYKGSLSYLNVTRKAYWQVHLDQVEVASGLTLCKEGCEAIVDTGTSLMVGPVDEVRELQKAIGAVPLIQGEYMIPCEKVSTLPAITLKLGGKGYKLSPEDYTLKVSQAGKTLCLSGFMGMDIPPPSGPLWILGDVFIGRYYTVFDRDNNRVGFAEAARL

| DSF - ΔTm of proCTSD with peptide CDE, pH 7.4 (pro-cathepsin D [1]) [°C] | Normalized Vmax of CTSD activity (20 nM proCTSD, 65 nM peptide CDE, pH 3.5) (pro-cathepsin D [1]) | DSF - Tm reduction of proCTSD with CDE at a 1:1 molar ratio (pro-cathepsin D [2]) [°C] | Kd (pro-cathepsin D [3]) [µM] | DSF - ΔTm of proCTSD (1 μM proCTSD with 2 μM peptide BAC, pH 7.4) (pro-cathepsin D [1]) [°C] | Normalized Vmax of CTSD activity (20 nM proCTSD, 65 nM peptide BAC, pH 3.5) (pro-cathepsin D [1]) | Substance |
| --- | --- | --- | --- | --- | --- | --- |
| -2.78 | 1.84 | 2.75 | 0.13 | – | – | multi-granulin domain peptide CDE (domain or fragment) |
| – | – | – | 2.8 | -3.38 | 1.89 | multi-granulin domain peptide BAC (domain or fragment) |

Reference: article PMC6666309
